Data: US20020077295A1 (YALE UNIVERSITY, published 2002)
Where no end group is shown, it is not given here.

B2: murine NgR (Nogo-66 receptor) expressed on COS-7 cells (receptor)
chain: CPGACVCYNEPKVTTSCPQQGLQAVPTGIPASSQRIFLHGNRISHVPAASFQSCRNLTILWLHSNALARIDAAAFTGLTLLEQLDLSDNAQLHVVDPTTFHGLGHLHTLHLDRCGLRELGPGLFRGLAALQYLYLQDNNLQALPDNTFRDLGNLTHLFLHGNRIPSVPEHAFRGLHSLDRLLLHQNHVARVHPHAFRDLGRLMTLYLFANNLSMLPAEVLMPLRSLQYLRLNDNPWVCDCRARPLWAWLQKFRGSSSEVPCNLPQRLADRDLKRLAASDLEGCAVASGPFRPIQTSQLTDEELLSLPKCCQPDAADKASVLEPGRPASAGNALKGRVPPGDTPPGNGSGPRHINDSPFGTLPSSAEPPLTALRPGGSEPPGLPTTGPRRRPGCSRKNRTRSHCRLGQAGSGASGTGDAEGS
notes: Library clone or pcDNA3.1 construct transfected into COS-7 cells; GPI-linked protein, cleavage site of the GPI signal not applied here; also called mouse NgR; mNgR
B3: AP-Nogo (His-AP-Nogo, 66 amino acid) (ligand)
chain: HHHHHHIIPVEEENPDFWNREAAEALGAAKKLQPAQTAAKNLIIFLGDGMGVSTVTAARILKGQKKDKLGPEIPLAMDRFPYVALSKTYNVDKHVPDSGATATAYLCGVKGNFQTIGLSAAARFNQCNTTRGNEVISVMNRAKKAGKSVGVVTTTRVQHASPAGTYAHTVNRNWYSDADVPASARQEGCQDIATQLISNMDIDVILGGGRKYMFRMGTPDPEYPDDYSQGGTRLDGKNLVQEWLAKRQGARYVWNRTELMQASLDPSVTHLMGLFEPGDMKYEIHRDSTLDPSLMEMTEAALRLLSRNPRGFFLFVEGGRIDHGHHESRAYRALTETIMFDDAIERAGQLTSEEDTLSLVTADHSHVFSFGGYPLRGSSIFGLAPGKARDRKAYTVLLYGNGPGYVLKDGARPDVTESESGSPEYRQQSAVPLDEETHAGEDVAVFARGPQAHLVHGVQEQTFIAHVMAFAACLEPYTACDLAPPAGTTDAAHPGRIYKGVIQAIQKSDEGHPFRAYLESEVAISEELVQKYSNSALGHVNCTIKELRRLFLVDDLVDSLK
notes: also called AP fused Nogo-66

Legend:
[1] = target: B2; test: 140-AP binding to COS-7 cells expressing mNgR, bound/free plot
Description: To determine if AP-fused deletion mutants of Nogo-66 bind mouse NgR (“mNgR”), COS-7 cells were transfected with a plasmid encoding the mouse NgR sequence ligated into pcDNA3.1. 48 hours after transfection, cells were washed with HBH (Hanks balanced salt solution containing 20 mM sodium Hepes, pH 7.05, and 1 mg ml⁻¹ bovine serum albumin) and then incubated with condition medium containing one of the AP-fusion proteins described above for 2 hours at 37° C. Cells were then washed, fixed, and left in HBH at 67° C. for 14-16 h to inactivate endogenous AP. AP-fusion protein binding to NgR expressing COS-7 cells was detected with the substrates NBT and BCIP (FIG. 13b).
FIG. 14b graphically depicts the binding of 140-AP to COS-7 cells expressing mNgR as measured as a function of 140-AP concentration.

[2] = target: B3; test: AP-fusion binding to COS-7 cells expressing mouse NgR
[3] = target: T1, AP (alkaline phosphatase alone) (UniProt P05187 23-511); test: AP binding to COS-7 cells transfected with the mouse NgR clone
T1 construct: Control without Nogo residues; also called AP alone
Text: This assay was utilized for expression cloning of a NgR. Pools of a mouse adult brain cDNA expression library representing 250,000 independent clones were transfected into non-neuronal COS-7 cells. […] Single cDNA clones encoding a Nogo biding site were isolated by sib-selection from each of the two positive pools. The two independently isolated clones are identical to one another except for a 100 bp extension of the 5′ untranslated region in one clone. […] Furthermore, GST-Nogo displaces AP-Nogo from these sites.

[4] = target: B3; test: AP-Nogo binding to COS-7 cells transfected with the mouse NgR clone
Text: A Nogo binding assay was developed which utilizes a method widely used in examining semaphorin and ephrin axonal guidance function (Flanagan & Vanderhaeghen, (1998) Annu. Rev. Neurosci. 21, 309-345; Takahashi et al., (1999) Cell 99, 59-69). It involves fusing a secreted placental alkaline phosphatase (AP) moiety to the ligand in question to provide a biologically active receptor binding agent which can be detected with an extremely sensitive colorimetric assay. For Nogo, an expression vector was created encoding a signal peptide, a His6 tag for purification, AP and the 66 amino acid active domain of Nogo. The fusion protein can be purified from the conditioned medium of transfected cells in milligram amounts (FIG. 5). This protein is biologically active as a growth cone collapsing agent, with an EC₅₀ of 1 nM. […] Binding is blocked by GST-Nogo and by the antagonistic 25 amino acid peptides, consistent with competitive binding to a neuronal receptor site.
This assay was utilized for expression cloning of a NgR. Pools of a mouse adult brain cDNA expression library representing 250,000 independent clones were transfected into non-neuronal COS-7 cells. […] Single cDNA clones encoding a Nogo biding site were isolated by sib-selection from each of the two positive pools. […]

[5] = target: T2, Nogo binding sites (axonal Nogo receptors) on chick dorsal root ganglion neurons (chick); test: AP-fusion ligand binding to dissociated neurons, Scatchard analysis
T2 construct: Target is defined only by the cells that carry it; also called neuronal receptor site
Description: Purified protein was subjected to SDS-PAGE and stained for total protein with CBB or immunoblotted with anti-Nogo antibodies (anti-Nogo). Molecular weight markers of 200, 116, 97, 65 and 45 kDa are shown at left, and the migration of AP-Nogo at right. (b) is a photograph of dissociated chick E12 dorsal root ganglion neurons that were incubated with 10 nM AP-Nogo or 10 nM AP-Nogo+160 nM GST-Nogo for sixty minutes at 23° C. The cells were washed, fixed and incubated at 60° C. in order to inactivate endogenous AP. Bound AP-Nogo was detected by incubation with nitro blue tetrazolium. Note the intense neuronal staining by AP-Nogo that is displaced by unlabeled ligand. (c) is a graph displaying experimental data where the potency of AP-Nogo and GST-Nogo in E12 chick dorsal root ganglion growth cone collapse assays was assessed as described in the Example section. […] The means±s.e.m. calculated from five to eight determinations are illustrated. (d) is a graph displaying experimental data where the binding of 10 nM AP-Nogo to chick E12 dorsal root ganglion neurons was assessed alone, or in the presence of 100 nM GST-Nogo or in the presence of 4 μM Pep2, which was quantified from experiments as in (b) by the method described in the Example section. The means±s.e.m. calculated from eight determinations are shown. […]

[6] = target: T2, Nogo binding sites (axonal Nogo …); test: cell-based or functional assay
[7] = target: T3, AP-NgR (mNgR residues 27-451 fused to 6xHis-placental alkaline phosphatase) (mouse, UniProt P05187 23-511 (human entry)); test: AP-NgR binding to transfected COS-7 cells
T3 construct: Soluble probe in the self-association test

[8] = target: B3; test: AP-hNogo-A(1055-1120) binding to transfected COS-7 cells
Description: Forty-eight hours after the transfection, the transfected COS-7 cells were washed with hanks balanced salt solution containing 20 mM sodium HEPES, pH 7.05, and 1 mg/ml bovine serum albumin (BSA) [hereinafter “HBH”]. […] AP-fusion protein was detected as previously described for AP-Sema3A (Takahashi et al., Nature Neurosci. 1:487-493, 1998).
Because the NgRΔ1-2, NgRΔ3-4, NgRΔ5-6, and NgRΔ7-8 deletions remove entire LRR domains it is unlikely that the entire tertiary structure of mNgR is disrupted.

[9] = target: B2; test: binding to mNgR, data not shown

B1: 140-AP (fusion protein containing AP and the 1-40 peptide, residues #1055-1094 of hNogoA) (ligand)
chain: RIYKGVIQAIQKSDEGHPFRAYLESEVAISEELVQKYSNS
modifications: also: fused to alkaline phosphatase (AP), order not given here
notes: not shown: alkaline phosphatase of vector pcAP-6
Work on B1 yielded a Kd [1] of 8 nM.

With B2 the Kd [2] was roughly 7 nM, the binding result [3] was “no binding” and the Kd [4] was roughly 3 nM.

With B3 the Kd [5] was 3 nM and the “growth cone collapse, chick E12 dorsal root ganglion (EC50)” value [6] was 1 nM.

B4: NgLRR- (residues 306 to 473 of mNgR) (receptor, not shown: small tags and cut ends)
chain: LEGCAVASGPFRPIQTSQLTDEELLSLPKCCQPDAADKASVLEPGRPASAGNALKGRVPPGDTPPGNGSGPRHINDSPFGTLPSSAEPPLTALRPGGSEPPGLPTTGPRRRPGCSRKNRTRSHCRLGQAGSGASGTGDAEGS
notes: In pSecTag2, on COS-7 cells; also called complete LRR domain deleted
B4: no binding [7]; no binding [8].

B5: NgRΔNT (residues 58 to 473 of mNgR) (receptor, not shown: small tags and cut ends)
chain: SSQRIFLHGNRISHVPAASFQSCRNLTILWLHSNALARIDAAAFTGLTLLEQLDLSDNAQLHVVDPTTFHGLGHLHTLHLDRCGLRELGPGLFRGLAALQYLYLQDNNLQALPDNTFRDLGNLTHLFLHGNRIPSVPEHAFRGLHSLDRLLLHQNHVARVHPHAFRDLGRLMTLYLFANNLSMLPAEVLMPLRSLQYLRLNDNPWVCDCRARPLWAWLQKFRGSSSEVPCNLPQRLADRDLKRLAASDLEGCAVASGPFRPIQTSQLTDEELLSLPKCCQPDAADKASVLEPGRPASAGNALKGRVPPGDTPPGNGSGPRHINDSPFGTLPSSAEPPLTALRPGGSEPPGLPTTGPRRRPGCSRKNRTRSHCRLGQAGSGASGTGDAEGS
notes: In pSecTag2, on COS-7 cells; vector tags as for wtNgR; also called amino terminus deletion
B5: no binding [7]; no binding [8].

IQKSDEGHPFRAYLESEVAISEELVQKYSNS [peptide having residues 10-40 of hNogoA(#1055-1120)]: no binding [9].
